Results from patent US20180155451A1 (published 2018).

T1: FcγRIIb (human, UniProt P31994 43-217)
T1 construct: extracellular domain; also called 2b
T1 sequence (looked up): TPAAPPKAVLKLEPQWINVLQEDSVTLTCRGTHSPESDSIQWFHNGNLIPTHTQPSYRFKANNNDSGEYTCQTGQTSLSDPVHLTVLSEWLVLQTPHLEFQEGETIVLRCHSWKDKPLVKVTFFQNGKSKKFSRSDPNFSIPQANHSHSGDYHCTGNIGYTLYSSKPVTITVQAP

T2: FcγRIIa H (human, UniProt P12318 34-217)
T2 construct: extracellular domain; also called FcγRIIa type H; 2aH
T2 sequence (looked up): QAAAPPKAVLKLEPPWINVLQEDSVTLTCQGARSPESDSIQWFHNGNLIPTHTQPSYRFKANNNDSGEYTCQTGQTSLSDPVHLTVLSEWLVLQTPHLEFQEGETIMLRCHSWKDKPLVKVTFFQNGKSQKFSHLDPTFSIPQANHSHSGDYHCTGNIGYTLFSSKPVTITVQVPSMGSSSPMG

B1: GpH7-A5/GpH7-B3 variant P271_10E/GpL16-k0 (antibody, human IgG1, kappa)
heavy 1: not shown
heavy 2: not shown
light: DIVMTQSPLSLPVTPGEPASISCQASESLVHSNRNTYLHWYLQKPGQSPQLLIYKVSNRFSGVPDRFSGSGSGTDFTLKISRVEAEDVGVYYCSQNTHVPPTFGQGTKVEIERTVAAPSVFIFPPSDEQLKSGTASVVCLLNNFYPREAKVQWKVDNALQSGNSQESVTEQDSKDSTYSLSSTLTLSKADYEKHKVYACEVTHQGLSSPVTKSFNRGEC
notes: heterodimerized IgG1, mutation in one H chain only; also called He Ab
B2: GpH7-A5/GpH7-B3 variant P271_14T/GpL16-k0 (antibody, human IgG1, kappa)
heavy 1: not shown
heavy 2: not shown
light: B1 light
notes: as for B1
B3: GpH7-A5/GpH7-B3 variant S267_05P/GpL16-k0 (antibody, human IgG1, kappa)
heavy 1: not shown
heavy 2: not shown
light: B1 light
notes: as for B1
B4: GpH7-A5/GpH7-B3 variant S267_04F/GpL16-k0 (antibody, human IgG1, kappa)
heavy 1: not shown
heavy 2: not shown
light: B1 light
notes: as for B1
B5: GpH7-A5/GpH7-B3 variant H268_02A/GpL16-k0 (antibody, human IgG1, kappa)
heavy 1: not shown
heavy 2: not shown
light: B1 light
notes: as for B1
B6: GpH7-A5/GpH7-B3 variant H268_18N/GpL16-k0 (antibody, human IgG1, kappa)
heavy 1: not shown
heavy 2: not shown
light: B1 light
notes: as for B1
B7: GpH7-A5/GpH7-B3 variant H268_10E/GpL16-k0 (antibody, human IgG1, kappa)
heavy 1: not shown
heavy 2: not shown
light: B1 light
notes: as for B1
B8: GpH7-A5/GpH7-B3 variant S267_02A/GpL16-k0 (antibody, human IgG1, kappa)
heavy 1: not shown
heavy 2: not shown
light: B1 light
notes: as for B1
B9: GpH7-A5/GpH7-B3 variant H268_09D/GpL16-k0 (antibody, human IgG1, kappa)
heavy 1: not shown
heavy 2: not shown
light: B1 light
notes: as for B1
B10: GpH7-A5/GpH7-B3 variant K326_05P/GpL16-k0 (antibody, human IgG1, kappa)
heavy 1: not shown
heavy 2: not shown
light: B1 light
notes: as for B1
B11: GpH7-A5/GpH7-B3 variant K326_04F/GpL16-k0 (antibody, human IgG1, kappa)
heavy 1: not shown
heavy 2: not shown
light: B1 light
notes: as for B1
B12: GpH7-A5/GpH7-B3 variant H268_01G/GpL16-k0 (antibody, human IgG1, kappa)
heavy 1: not shown
heavy 2: not shown
light: B1 light
notes: as for B1
B13: GpH7-A5/GpH7-B3 variant S267_06M/GpL16-k0 (antibody, human IgG1, kappa)
heavy 1: not shown
heavy 2: not shown
light: B1 light
notes: as for B1
B14: GpH7-A5/GpH7-B3 variant K326_02A/GpL16-k0 (antibody, human IgG1, kappa)
heavy 1: not shown
heavy 2: not shown
light: B1 light
notes: as for B1
B15: GpH7-A5/GpH7-B3 variant H268_13S/GpL16-k0 (antibody, human IgG1, kappa)
heavy 1: not shown
heavy 2: not shown
light: B1 light
notes: as for B1
B16: GpH7-A5/GpH7-B3 variant H268_05P/GpL16-k0 (antibody, human IgG1, kappa)
heavy 1: not shown
heavy 2: not shown
light: B1 light
notes: as for B1
B17: GpH7-A5/GpH7-B3 variant P271_01G/GpL16-k0 (antibody, human IgG1, kappa)
heavy 1: not shown
heavy 2: not shown
light: B1 light
notes: as for B1
B18: GpH7-A5/GpH7-B3 variant K326_03V/GpL16-k0 (antibody, human IgG1, kappa)
heavy 1: not shown
heavy 2: not shown
light: B1 light
notes: as for B1

Target: T1, FcγRIIb
Test: SPR (Biacore), relative binding vs GpH7-A5/GpH7-B3/GpL16-k0
Procedure: (§1) The heterodimerized antibodies He Abs in which one of the H chains was introduced with an alteration were assayed for their binding activities to each activating FcγR and inhibitory FcγR according to the method described in Example 4. […] The activating FcγRs in FIGS. 26, 27, 28, and 29 are FcγRIa, FcγRIIa (R), FcγRIIa (H), and FcγRIIIa, respectively.
(§2) Analysis of interaction between objective antibody and the FcγR was carried out using Biacore T100 (GE Healthcare). HBS-EP+ (GE Healthcare) was used as the running buffer, and the measurement temperature was set to 25° C. Chips produced by immobilizing the antigen peptide by the amine coupling method to a Series S Sencor Chip CM5 (GE Healthcare), or alternatively, chips produced by allowing preliminarily biotinylated antigen peptides to interact with and immobilize onto a Series S Sensor Chip SA (certified) (GE Healthcare) were used. Antibodies of interest were captured onto an antigen peptide-immobilized chip, and allowed to interact to each FcγR diluted with running buffer. To regenerate and repeatedly use the chip, the antibodies captured on the chip were washed off by reacting 10 mM glycine-HCl, pH 1.5.

| He/Con_2b | Binder |
| --- | --- |
| 109 % of control He Ab (=100) | B1 |
| 95.4 % of control He Ab (=100) | B2 |
| 31.5 % of control He Ab (=100) | B3 |
| 48 % of control He Ab (=100) | B4 |
| 167 % of control He Ab (=100) | B5 |
| 156 % of control He Ab (=100) | B6 |
| 230 % of control He Ab (=100) | B7 |
| 243 % of control He Ab (=100) | B8 |
| 239 % of control He Ab (=100) | B9 |
| 126 % of control He Ab (=100) | B10 |
| 155 % of control He Ab (=100) | B11 |
| 144 % of control He Ab (=100) | B12 |
| 210 % of control He Ab (=100) | B13 |
| 139 % of control He Ab (=100) | B14 |
| 160 % of control He Ab (=100) | B15 |
| 116 % of control He Ab (=100) | B16 |
| 193 % of control He Ab (=100) | B17 |
| 175 % of control He Ab (=100) | B18 |

Target: T2, FcγRIIa H
Test: as above
Procedure: as §1, §2

| He/Con_2aH | Binder |
| --- | --- |
| 63.1 % of control He Ab (=100) | B1 |
| 60.9 % of control He Ab (=100) | B2 |
| 25.1 % of control He Ab (=100) | B3 |
| 22.7 % of control He Ab (=100) | B4 |
| 114 % of control He Ab (=100) | B5 |
| 112 % of control He Ab (=100) | B6 |
| 124 % of control He Ab (=100) | B7 |
| 120 % of control He Ab (=100) | B8 |
| 133 % of control He Ab (=100) | B9 |
| 98.8 % of control He Ab (=100) | B10 |
| 97 % of control He Ab (=100) | B11 |
| 99.2 % of control He Ab (=100) | B12 |
| 34.3 % of control He Ab (=100) | B13 |
| 106 % of control He Ab (=100) | B14 |
| 112 % of control He Ab (=100) | B15 |
| 81.8 % of control He Ab (=100) | B16 |
| 107 % of control He Ab (=100) | B17 |
| 97 % of control He Ab (=100) | B18 |

Target: T2, FcγRIIa H
Test: SPR; He/Con_2aH divided by He/Con_2b (FcγRIIb)
Procedure: as §1, §2

| He_2aH/2b (IIaH/IIb) | Binder |
| --- | --- |
| 0.58 ratio | B1 |
| 0.64 ratio | B2 |
| 0.8 ratio | B3 |
| 0.47 ratio | B4 |
| 0.68 ratio | B5 |
| 0.72 ratio | B6 |
| 0.54 ratio | B7 |
| 0.49 ratio | B8 |
| 0.55 ratio | B9 |
| 0.79 ratio | B10 |
| 0.63 ratio | B11 |
| 0.69 ratio | B12 |
| 0.16 ratio | B13 |
| 0.76 ratio | B14 |
| 0.7 ratio | B15 |
| 0.7 ratio | B16 |
| 0.55 ratio | B17 |
| 0.55 ratio | B18 |
